Assay: soluble fraction after stress (log2 fold change); higher = more stays soluble; pooled small domains, quantitative proteomics
Details: stress: 50 degC
Method in brief: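 The stress applied to every library was 50°C. These custom libraries of small protein domains were pooled and measured at high throughput with quantitative proteomics as the read-out. Aggregation propensity is expressed as the base-two logarithm of the fold change in how much of each protein remains soluble. The higher the value, the more of that protein stays in solution.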

Sequence	soluble fraction (log2)
HMDLAENWKDDADITLAEYNAIRSRYKPGKLHRDTEFMIARDMLIRPETVLAIAHSRFSNVHTHPV	-0.945
HMDLDEELDFLSDADESATKLDLARAYIDMGDKDGARDILAEVLEEGRSEQKREAQALLDSI	0.406
HMDLDPVEKLHLLSQLYVGQLKGSFVVKEKNQKTTIIGEVRELSHQTLSIRTNEGYRLIEVADILEIRLWE	-0.221
HMDLDYSGIMNVLNQKYHITFYNNKKIQNLMPKLMIIMGYNSIINEIGHSKSLKALINSFEEKLKSYILT	-3.02
HMDLEGLSNKELVTLRGQIQDDLNKWATEVGIIDPKNRPDDYNRALQSLEDAKRQRSAIDAKL	0.0869
HMDLEIENYDLREILNLFKLDYNFDNVDLKRAQKIALKTHPDKSNLPKEYFMFFMKAFQIVQQIYYYRY	-0.47
HMDLFREERRQAILDWLATAGRVSVAELSASFGVSEVTVRADLQALADRRLVVRTHGGAMMAG	-1.43
HMDLHSQVFESYERKIREVLREGPLTFEEILHAFALKRHETVAQVITYLMDEGKMSDSGDGKLIYSG	-0.558
HMDLIISDIRMPEMRGDDFLEWIKANELFKHIPVIMLSSEDSTTERIRLLEIGAEDYIVKPFNPMELKIR	-0.505
HMDLLIFSPSLGQHVRDLKRVIDRLHQHGIPVRWQKAKLLREEIEYIGWTWKSGGLIDPTNV	-0.31
HMDLMSTNEKLLYTMRYLISKSLDGAITEEEIRRLDRLIIENSQARAYYVEYLQIHTHLRKLMQQNPELK	-1.97
HMDLRIIKTKKAIKTAFLNLLKENKYHNITISAISETALINRKTFYAHYETKDELYADVIEDALRVLSP	0.0478
HMDLRIKEIMSERNVTSAWLAEKVGISKVAVSNIVTGKSSPSLDNLLKIADALNVSITTLIG	-0.824
HMDLRYKVQYNFIDQGMMTKDELLKFSLNQDDVSKIAVFDNDSKQWKEIYAITEISEKLGIS	-0.0611
HMDLTIEQTTVLGKRLFSNALNSLGKKQRNIKKDAIESLLKRMNLKDMDQLYESIGIGDKSPLLMAQILL	-0.0296
HMDLVIALNSRIRVIREPFFGKLGTVIDLPHKLHKMESGTMTRVAKIKFDDRTEEIIPRTNLEVILS	-2.69
HMDLYEILGVRRGAGGGEIRRAYRRLARRYHPDVNPGDREAQARYALITRAFETLNDPERRRAYDAGVP	-0.34
HMDMAENEEYKVIMGQAQQLAEQFFPADDNTRRIMLGQLKLENYSLYLLTKQILDEATKGQAAAAN	0.0229
HMDNFDVVLTSPGDQKVQVIKAVRSITGLGLKEAKDLVDGAPNTVKEGVKKLDAEEMLKQLTEAGATGEL	0.296
HMDNFQFIGYSQQQGQIAVAWIKSLDNGRLVRVEVSDSLEGWRVSDISAQGVNLTKGQQWLMLKRL	-1.73
HMDNIGKTLGQNQTRQYKVAYAEAAKLPAIIMGLVPLPKPPVVDERLRSLYVTATPEQHRQIETLMNRI	0.11
HMDNITIYSSNGKIYVNAIGGEKIELFNITGQKVAEKVAVSGINVLDAVYDITLVKVGSKVVKVV	-0.123
HMDNLATRILKELNNNDGFLPLSDKSQPEAIYQAFGISKKSYKTAIGTLYKKRLITISENGIQLTD	-0.688

Sequence	soluble fraction (log2)
HMDNLSQMQERILEFIIRSKDQSGYTPSLREIGDEVGLKAVSSVKYQLEQLKDAHYISFDANTARAIRVLI	-1.7
HMDNMFVEERQALIYEELQSNGRVRVKDLSKKFNVSEDLIRKDLNVLEKEGKLRKIYGGAVLAK	0.568
HMDNNNQAAFMGALNSLKEYAKVNGNIVTKQDVESYFKDLGLDDSKYQMITGYLLANDITVKG	0.0282
HMDNQYGVYSDEKNNVEIHWKRIDHPSVAKDHLDIEAYQNGKRVDINNQQADHYRYLINQEMNE	0.0952
HMDPAFAQHHDRALSILHSRGYEVHDSDTDLHWARPVLEFEAYKGSLEYKIVMSYPDLNIIEERVD	-1.06
HMDPASYEARLSTLREQGAQQLDPVRFQYLATLAQRLPTQTPGVALILANKLRAGLSDYEQRLSEAGS	-0.0289
HMDPDAIVSKGQLGALNNAIGRFIAQGGSQTVVDKGIAKRNPNAKKPADLTNSQAESLEAAILKILNG	0.515
HMDPLGALSDRERQVLALIGQGHGLQAIADQLGVSYKTAANTSSALKKKLGVDGINGLMKFALDSG	-0.505
HMDPLGGFTKGDVDMDGRVAVNDAVMVLKNAIKLMELDTQQLMLADADNDGKITVNDAVMILKKAIKLID	-0.111
HMDPTLFRLNILEGLGLEKKNLTSEEQEQLRFLYEHFSMKEILMTIDYIKKLNLEKSIVNLYRLMQHP	-0.0621
HMDPTVEENKLNPRDLLIIQRVKEGRTNKEIAEELNVAEITVKKQLSSLYQRYKVHNRNQLLLALD	0.117
HMDPVQLEVIKKLNLLNAQKPKDIYALRDVLSEMFPQSDIRLLLKELLDKGYIYWNGHEVIYSHEMF	-0.217
HMDPYEYQLELEKLINNATELNKKYNYDPLKDKILAADAVKNSLETYVLQNYIVALENEIKQTLNQYQIL	-0.44
HMDQNDYMLTRIRNGQMRNKVSVSMPASKIKSAIAAVLKDEGYIENFALNDSSGKPSLIVNLKYYAGQPV	-0.0135
HMDQPVIDVREFGARGDGKQDDAPAIQAAVRLAEQLGGGRVVVPATREFYLLGSTIRIRGHHVTLTGPGAR	0.0155
HMDRAIAAHLEARVRDALKQLSPEQTRVIELFFFDNKTHAEIENDLKIPLGTVKSRLRLALNKLRASL	-1.96
HMDRASGEEEALKEAEDAISRVWEFDGPVELNPQNSYLRRLQHELASRYNVKSVSIGQEPNRRVVYYK	-0.0181
HMDRDPAEAGYDDGYLSGNTDGMNNDERATYDESSQYPTPDERQSYAAAYRRGYAAGFADGRKQAV	0.134
HMDREIVEAIVPLEAAGKRFDAALAEMFPEFSRSRLTEWIKAGDALLAGEIVKPKVSVRGGEAVSLSIRV	-0.485
HMDRELVALVQKALSQLSEQQRRIVELHVMEGMKYLEIADLLQLSENTVRTHLKRAYKILRENH	-1.76
HMDRERFIKLGREIARAAFENVGKKATDKVLNSAAKKLRLEDGDEVLARLGSAEIEARSVVQAVYPDLI	0.452
HMDRKARRKYIEQVVNDRKIETQEELLKLLTEAGFETTQATISRDIHALNIVKANDGDGHTHYVQLH	0.144
HMDRKEEIIIVTLKLASQIGLSNVSMEQIAKQVGIKKPSLYNHFKSKDEIIDAMYEYLREKSKN	-0.869

Sequence	soluble fraction (log2)
HMDRMIPPYGLEVTYDKTTHIIFPSAVRYVDLGSPNLIAGKADGSENVIRVKATRKNFREETNMSVITE	-0.043
HMDRPEPLYIVNGKEVQTLEEAFELGRTLGSAKKGTQVRLRRLLPEEGVEKYGEKGRNGVFEFMVSA	0.217
HMDRPLRTKEHFARFAGEQVVVKTSSPIDGRSSFTGTLEGMEGDDVIVEVDGSRIAIGYSLIKRAHVVG	0.117
HMDRRFFVAEENYKRLDVFLSERMEEFTRSRIKKLIDEGHVELNGKSAKAGAEIRPGDEVAAEIPEVKE	0.147
HMDRRIDIANAVKTALGSLPERQKTAIVLVHYEGFSGAETAKLLGISVEAVESLLARARRNLRQTLGP	-0.455
HMDRTIGEIGLVTETIDSTLESGRVMVDGLSWKARTSDNTVLEAGTRVQVKEIHGVTLTVEKA	0.166
HMDRTLTYTVSIEESDLRADQFLSRRGFSSHLLTRLRKNMEHLLINGTPSRTNTHLHEGDILTVHIVEE	-0.479
HMDRWTPLIVAVLIEGSHRFGELRSAIGGITPKVLTETLRSMERDGLVTRDQVPGVPPRVDYALTPLG	-0.334
HMDRYVDEEKRFYWRSGEAYLNFSKYKDRSLAEVATVDPGFLRWMMEADFSPETKQIVERALEGEFPQKK	0.123
HMDSADADLLRRIEDLLSSRRSVIREARLADMLGVPRDQVARALDLLQERGVIGLTTDSGMKRIAFRRN	-0.0756
HMDSAQLARWAATILAQNGRKITPSTMNLFLERVGDDMENIRMELEKLISYTMGSEVVTAEDVKVITTVQ	-0.569
HMDSAVLQKHLVKLIELHAPIKARNLAKILADEFGKHVDRSAVNSALYSLKAERKVEVNSSYEWSLD	-2.11
HMDSDRAARLSSLTPQQFRVLRMVSEGQLNKQIAYQLNISEATVKSHVSAILQKLGVNSRTQAVILATRLD	-2.01
HMDSEQLSGLVNMGFSVYQAKTALEMFDNDIERAANYL	-0.425
HMDSERTALLSSDRTSFTAREAALLIGVSQRDIYRMIEDELLDSFTVGKMIRIRRSALEWWLS	-2.92
HMDSFEEGTYRKNQRGFGFVKIENQEDEIFISKENSLNALNGDRVIVEIIEDKDRTKRAEGKIKKILKHE	0.201
HMDSGLLSAREREVAGLVLSGMTYAEIGEAIFISPRTAEHHIARIRRRLGATSRTDLIAKLQAIVGID	-3.45
HMDSGVPEWLASALRASPVAWKNFLALPPSHQRRYVGWISSARRDETRNRRIAEAISLLVEHKRLG	-1
HMDSIKDQIYQILKEDILTGELRSGEQLVEQTIAARFNTSRSPVREAIKQLTGDGLVINITNKGTFVK	0.168
HMDSISEQIYSIIKEEILLAKRKPGEQINPRKLADEFETSVMPIRDALNQLANEGLVIRKPRVGFFVR	0.0655
HMDSITEADLLRWAHALSGIARTGLGFTESRYERERYEEVLAVAADILAASSRSHDRAALVDEWLKMVGV	-1.8
HMDSKKNLLGKNGLAFTTLRPAGTVLIDGQRHDVISNGDMIPKGATVRVIAIEGASITVEALPD	0.155
HMDSMATVPDLVGKTEDEAKALANDAHLGVQMAGEEASDQEKGKISRQETAAGTQVAEYTTVKYWVSTGTQ	0.124
